B1: Azoarcus group I ribozyme (parent)
chain: GUGCCUUGCGCCGGGAAACCACGCAAGGGAUGGUGUCAAAUUCGGCGAAACCUAAGCGCCCGCCCGGGCGUAUGGCAACGCCGAGCCAAGCUUCGGCGCCUGCGCCGAUGAAGGUGUAGAGACUAGACGGCACCCACCUAAGGCAAACGCUAUGGUGAAGGCAUAGUCCAGGGAGUGGCGAAAGUCACACAAACCGG

Variants of: B1
Assay: reverse-splicing fitness (ratio to wild type); higher = more active; in vitro selection; Mg2+ level not given
How it was run: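 An in vitro group I ribozyme library with randomized positions was T7-transcribed and gel-purified. In triplicate, 10 pmol RNA in EPPS pH 7.5 was reacted with 50 pmoles of a 30-nt RNA substrate for 1 h at 37 °C across several added MgCl2 levels (1–48 mM), then stopped with EDTA. Products were reverse transcribed from a substrate-complementary primer, PCR-amplified and sequenced (HiSeq 4000). Fitness is a variant's read proportion after selection over that before, normalised to wild type.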

Variant	reverse-splicing fitness
GUGCCUUGCGCCGGGAAACCACGCAAGGGAUGGUGUCAAAUUCGGCGAAACCUAAGCGCCCGCCCGGGCGUAUGGCAACGCGGAGCCAAGCUUCGGCGCCUGCGCCGAUGCAGGUGUAGUGACUAGACGGCACCCACCUAAGGCUAACGGUAUGGUGAAGGCAUAGUCCAGGGAGAGGCGAAAGUCACACAAACCGG [C82G A111C A120U A145U C150G U176A]	0.00411
GUGCCUUGCGCCGGGAAACCACGCAAGGGAUGGUGUCAAAUUCGGCGAAACCUAAGCGCCCGCCCGGGCGUAUGGCAACGCGGAGCCAAGCUUCGGCGCCUGCGCCGAUGCAGGUGUAGUGACUAGACGGCACCCACCUAAGGCUAACGGUAUGGUGAAGGCAUAGUCAAGGGAGGGGCGAAAGUCACACAAACCGG [C82G A111C A120U A145U C150G C169A U176G]	0.00276
GUGCCUUGCGCCGGGAAACCACGCAAGGGAUGGUGUCAAAUUCGGCGAAACCUAAGCGCCCGCCCGGGCGUAUGGCAACGCGGAGCCAAGCUUCGGCGCCUGCGCCGAUGCAGGUGUAGUGACUAGACGGCACCCACCUAAGGCUAACGGUAUGGUGAAGGCAUAGUCAAGGGAGCGGCGAAAGUCACACAAACCGG [C82G A111C A120U A145U C150G C169A U176C]	0.00308
GUGCCUUGCGCCGGGAAACCACGCAAGGGAUGGUGUCAAAUUCGGCGAAACCUAAGCGCCCGCCCGGGCGUAUGGCAACGCGGAGCCAAGCUUCGGCGCCUGCGCCGAUGCAGGUGUAGUGACUAGACGGCACCCACCUAAGGCUAACGGUAUGGUGAAGGCAUAGUCAAGGGAGAGGCGAAAGUCACACAAACCGG [C82G A111C A120U A145U C150G C169A U176A]	0.0036
GUGCCUUGCGCCGGGAAACCACGCAAGGGAUGGUGUCAAAUUCGGCGAAACCUAAGCGCCCGCCCGGGCGUAUGGCAACGCGGAGCCAAGCUUCGGCGCCUGCGCCGAUGCAGGUGUAGUGACUAGACGGCACCCACCUAAGGCUAACGUUAUGGUGAAGGCAUAGUCAAGGGAGAGGCGAAAGUCACACAAACCGG [C82G A111C A120U A145U C150U C169A U176A]	0.00282
GUGCCUUGCGCCGGGAAACCACGCAAGGGAUGGUGUCAAAUUCGGCGAAACCUAAGCGCCCGCCCGGGCGUAUGGCAACGCGGAGCCAAGCUUCGGCGCCUGCGCCGAUGCAGGUGUAGUGACUAGACGGCACCCACCUAAGGCUAACGUUAUGGUGAAGGCAUAGUCAAGGGAGGGGCGAAAGUCACACAAACCGG [C82G A111C A120U A145U C150U C169A U176G]	0.00223
GUGCCUUGCGCCGGGAAACCACGCAAGGGAUGGUGUCAAAUUCGGCGAAACCUAAGCGCCCGCCCGGGCGUAUGGCAACGCGGAGCCAAGCUUCGGCGCCUGCGCCGAUGCAGGUGUAGUGACUAGACGGCACCCACCUAAGGCUAACGUUAUGGUGAAGGCAUAGUCAAGGGAGCGGCGAAAGUCACACAAACCGG [C82G A111C A120U A145U C150U C169A U176C]	0.00293
GUGCCUUGCGCCGGGAAACCACGCAAGGGAUGGUGUCAAAUUCGGCGAAACCUAAGCGCCCGCCCGGGCGUAUGGCAACGCGGAGCCAAGCUUCGGCGCCUGCGCCGAUGCAGGUGUAGUGACUAGACGGCACCCACCUAAGGCUAACGUUAUGGUGAAGGCAUAGUCCAGGGAGUGGCGAAAGUCACACAAACCGG [C82G A111C A120U A145U C150U]	0.0307
GUGCCUUGCGCCGGGAAACCACGCAAGGGAUGGUGUCAAAUUCGGCGAAACCUAAGCGCCCGCCCGGGCGUAUGGCAACGCGGAGCCAAGCUUCGGCGCCUGCGCCGAUGCAGGUGUAGUGACUAGACGGCACCCACCUAAGGCUAACGGUAUGGUGAAGGCAUAGUCCAGGGAGUGGCGAAAGUCACACAAACCGG [C82G A111C A120U A145U C150G]	0.00826
GUGCCUUGCGCCGGGAAACCACGCAAGGGAUGGUGUCAAAUUCGGCGAAACCUAAGCGCCCGCCCGGGCGUAUGGCAACGCGGAGCCAAGCUUCGGCGCCUGCGCCGAUGCAGGUGUAGUGACUAGACGGCACCCACCUAAGGCUAACGUUAUGGUGAAGGCAUAGUCAAGGGAGUGGCGAAAGUCACACAAACCGG [C82G A111C A120U A145U C150U C169A]	0.00298
GUGCCUUGCGCCGGGAAACCACGCAAGGGAUGGUGUCAAAUUCGGCGAAACCUAAGCGCCCGCCCGGGCGUAUGGCAACGCGGAGCCAAGCUUCGGCGCCUGCGCCGAUGCAGGUGUAGUGACUAGACGGCACCCACCUAAGGCUAACGUUAUGGUGAAGGCAUAGUCGAGGGAGUGGCGAAAGUCACACAAACCGG [C82G A111C A120U A145U C150U C169G]	0.00403
GUGCCUUGCGCCGGGAAACCACGCAAGGGAUGGUGUCAAAUUCGGCGAAACCUAAGCGCCCGCCCGGGCGUAUGGCAACGCGGAGCCAAGCUUCGGCGCCUGCGCCGAUGCAGGUGUAGUGACUAGACGGCACCCACCUAAGGCUAACGAUAUGGUGAAGGCAUAGUCUAGGGAGAGGCGAAAGUCACACAAACCGG [C82G A111C A120U A145U C150A C169U U176A]	0.00302
GUGCCUUGCGCCGGGAAACCACGCAAGGGAUGGUGUCAAAUUCGGCGAAACCUAAGCGCCCGCCCGGGCGUAUGGCAACGCGGAGCCAAGCUUCGGCGCCUGCGCCGAUGCAGGUGUAGUGACUAGACGGCACCCACCUAAGGCUAACGAUAUGGUGAAGGCAUAGUCUAGGGAGGGGCGAAAGUCACACAAACCGG [C82G A111C A120U A145U C150A C169U U176G]	0.00243
GUGCCUUGCGCCGGGAAACCACGCAAGGGAUGGUGUCAAAUUCGGCGAAACCUAAGCGCCCGCCCGGGCGUAUGGCAACGCGGAGCCAAGCUUCGGCGCCUGCGCCGAUGCAGGUGUAGUGACUAGACGGCACCCACCUAAGGCUAACGAUAUGGUGAAGGCAUAGUCUAGGGAGCGGCGAAAGUCACACAAACCGG [C82G A111C A120U A145U C150A C169U U176C]	0.00353
GUGCCUUGCGCCGGGAAACCACGCAAGGGAUGGUGUCAAAUUCGGCGAAACCUAAGCGCCCGCCCGGGCGUAUGGCAACGCGGAGCCAAGCUUCGGCGCCUGCGCCGAUGCAGGUGUAGUGACUAGACGGCACCCACCUAAGGCUAACGAUAUGGUGAAGGCAUAGUCUAGGGAGUGGCGAAAGUCACACAAACCGG [C82G A111C A120U A145U C150A C169U]	0.00311

Reference: the RNAGym collection of RNA variant scans (doi:10.1093/molbev/msab373)
